The target of test [1] is basigin (CD147), Ig domains 1 and 2 of the short isoform (aa 22-205) (UniProt P35613). Description: SPR; BIAcore T200; basigin immobilised on a CM5 chip by amine coupling (950 RU); PfRH5 injected as a twofold dilution series from 2 uM, 120 s at 30 uL/min, 300 s dissociation; 20 C; 10 mM HEPES pH 7.4, 150 mM NaCl, 3 mM EDTA, 0.005% Tween-20, 2 mg/mL dextran, 1 mg/mL salmon sperm DNA; global 1:1 interaction model.

The target in test [2] is basigin (Homo sapiens) (UniProt P35613). To be noted: cited from earlier work.

With “Plasmodium falciparum reticulocyte-binding protein homolog 5 with C-terminal C-tag (EPEA) (from UniProt Q8IFM5 26-526) (domain or fragment)”, the Kd in test [1] came out at 390 nM.

For the substance “Plasmodium falciparum reticulocyte-binding protein homolog 5 with C-terminal hexa-histidine tag (from UniProt Q8IFM5 26-526) (domain or fragment)”, the Kd in test [1] came to 830 nM.

Take PfRH5 (from UniProt Q8IFM5): the Kd in test [2] is 1000 nM.

The term Kd denotes the equilibrium constant for the complex coming apart.

The record behind these values is article PMC5482323.
